Among the data in patent US20230365658A1 are pseudoviral neutralization IC50 values, retold here.

The experiment deals with SARS-CoV-2 spike (S) glycoprotein, artificially-constructed BA.2.75+R346T (SARS-CoV-2), P0DTC2. The experiment in a line: cell-based or functional assay.

B1: mAb_v2130Vanderbilt_184_20220114_00112 (antibody, V domains shown)
VH: EVQLVESGGGLVKPGGSLRLSCAASGFTFRDVWMSWVRQAPGKGLEWVGRIKSKIDGGTTDYAAPVKGRFTISRDDSKNTLYLQMNSLKTEDTAVYYCTTAGSYYYDTVGPELPEGKFDYWGQGTLVTVSS
VL: not shown
B1 gave a pseudoviral neutralization IC50 of 0.674 mg/L.
